The results in this text go back to publication PMC10184318, “The fission yeast cytokinetic ring component Fic1 promotes septum formation” (Biology Open, 2023).

B1: Fic1-MBP [S. pombe] / Cyk3-SH3-GST (aa1-66) [S. pombe] (parent complex)
chain 1: MSKNPLGTLVVRIWKAKNLPNKALVGKQSPYCVCRVGEVVKRTQTDKRSGQEPSWNAVLEFNIPSESYHIMKITVFHEGFRKHPHLIGDTVLSFEKAMKEELQSEWYELKNEFQFAGELSVQFKFIPTDPLYFDRASSKPVLQFPYSSVAALTPVPKKPSKPSKPRKKVPVSHPLPPTPPSREEHVSVPRESSLFTYEDDPLPSFPSPYMVDDYYTQDVFVSDNVNDYSYGVQNPTNPRLSVEDYDANHSSLPPVPPPHLILPTASSSQIFH
chain 2: MSIPKQLPCMVRALYAWPGEREGDLKFTEGDLIECLSIGDGKWWIGRHINTNTQGIFPSNFVHCLD

The variants in the test derive from B1. As to the kind of experiment: in vitro binding assay (GST pull-down, Coomassie Blue-stained SDS-PAGE, band quantification); parent: 1; read off a plot.
Take chain 1 MSKNPLGTLVVRIWKAKNLPNKALVGKQSPYCVCRVGEVVKRTQTDKRSGQEPSWNAVLEFNIPSESYHIMKITVFHEGFRKHPHLIGDTVLSFEKAMKEELQSEWYELKNEFQFAGELSVQFKFIPTDPLYFDRASSKPVLQFPYSSVAALTPVPKKPSKPSKPRKKVPVSHALPATPPSREEHVSVPRESSLFTYEDDPLPSFPSPYMVDDYYTQDVFVSDNVNDYSYGVQNPTNPRLSVEDYDANHSSLPPVPPPHLILPTASSSQIFH [chain 1 P174A, chain 1 P177A]: the response was around 0.35 A.U. Next, chain 1 MSKNPLGTLVVRIWKAKNLPNKALVGKQSPYCVCRVGEVVKRTQTDKRSGQEPSWNAVLEFNIPSESYHIMKITVFHEGFRKHPHLIGDTVLSFEKAMKEELQSEWYELKNEFQFAGELSVQFKFIPTDPLYFDRASSKPVLQFPYSSVAALTPVPKKPSKPSKPRKKVPVSHPLAPTAPSREEHVSVPRESSLFTYEDDPLPSFPSPYMVDDYYTQDVFVSDNVNDYSYGVQNPTNPRLSVEDYDANHSSLPPVPPPHLILPTASSSQIFH [chain 1 P176A, chain 1 P179A]: around 0.19 A.U.
